Measured values reported in US20240166765A1, “INFLAMMATORY DISEASE TREATMENT USING ANTI-TISSUE FACTOR ANTIBODIES” (Iconic Therapeutics LLC, priority 2020, published 2024).

Key:
[1] = target: h1-107_r (human/rat chimera); assay: live cell staining, flow cytometry, HEK293 cells expressing the construct
[2] = target: r141-194_h (rat/human chimera) (UniProt P42533); assay: as above
[3] = target: h1-107_r (human/rat chimera); assay: live cell staining, flow cytometry
[4] = target: r141-194_h (rat/human chimera) (UniProt P42533); assay: live cell staining, flow cytometry

Chain of h1-107_r (human/rat chimera) (chain, as listed by the source mutant limits assumed): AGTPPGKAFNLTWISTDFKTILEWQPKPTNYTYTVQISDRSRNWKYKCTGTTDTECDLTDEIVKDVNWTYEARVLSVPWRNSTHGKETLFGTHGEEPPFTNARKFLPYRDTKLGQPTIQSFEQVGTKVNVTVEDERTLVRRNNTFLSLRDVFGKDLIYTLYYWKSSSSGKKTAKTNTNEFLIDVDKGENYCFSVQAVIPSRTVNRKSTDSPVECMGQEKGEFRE

Percentage antibody binding to TF construct relative to hTF [1]: < 50%
Percentage antibody binding to TF construct relative to hTF [2]: < 50%
Percent antibody binding to TF construct relative to hTF [3]: 41%
Percent antibody binding to TF construct relative to hTF [4]: 32%
Substance: 5G9 (antibody)
